Laboratory results as given in patent US20170015742A1 (published 2017).

How the values were obtained:
PDGF-BB = target: T1, PDGF-BB (human, UniProt P01127 82-190, limits assumed); assay: Biacore SPR; DVD-Ig captured on anti-human Fc, antigen injected
T1 construct: also called human PDGF-BB; hPDGF-BB
Description: (§1) For example, approximately 9000 RU of goat anti-human Fc specific polyclonal antibody (Thermo Fisher Scientific Inc., Rockford, Ill.) diluted in 10 mM sodium acetate (pH 4.5) is directly immobilized across a CM5 research grade biosensor chip using a standard amine coupling kit according to manufacturer's instructions and procedures at 25 μg/ml. Unreacted moieties on the biosensor surface were blocked with ethanolamine. For kinetic analysis, rate equations derived from the 1:1 Langmuir binding model were fitted simultaneously to multiple antigen injections (using global fit analysis) with the use of Scrubber 2 (BioLogic Software), Biacore Biaevaluation 4.0.1 software or Biacore T100 Evaluation software. Purified antibodies or DVD-Ig molecules were diluted in running buffer for capture across goat anti-human Fc reaction surfaces. Antibodies or DVD-Ig molecules to be captured as a ligand (1 μg/ml) were injected over reaction matrices at a flow rate of 10 μl/minute. During the assay, all measurements were referenced against the capture surface alone (i.e., with no captured antibody or DVD-Ig molecule). […] The equilibrium dissociation constant KD (M) of the reaction between antibodies and the target antigen was then calculated from the kinetic rate constants by the following formula: KD=Koff/Kₒₙ. Binding was recorded as a function of time and kinetic rate constants were calculated.

VEGF-A = target: T2, VEGF-A (human, UniProt P15692 207-395); assay: as above
T2 construct: also called hVEGF165
Description: as §1

Human VEGF-A 165 = target: T3, Human VEGF-A 165 (human, UniProt P15692 207-395); assay: Biacore SPR (Example 1.1)
T3 construct: also called hVEGF165; huVEGF-A165
Description: as §1, with “Unreacted” for “For example, approximately 9000 RU of goat anti-human Fc specific polyclonal antibody (Thermo Fisher Scientific Inc., Rockford, Ill.) diluted in 10 mM sodium acetate (pH 4.5) is directly immobilized across a CM5 research grade biosensor chip using a standard amine coupling kit according to manufacturer's instructions and procedures at 25 μg/ml. Unreacted”, “calculated. In this assay, on-rates as fast as 10⁶M⁻¹s⁻¹ and off-rates as slow as 10⁻⁶ s⁻¹ could be measured. […]” for “calculated.”

T1 sequence (P01127 82-190 limits assumed): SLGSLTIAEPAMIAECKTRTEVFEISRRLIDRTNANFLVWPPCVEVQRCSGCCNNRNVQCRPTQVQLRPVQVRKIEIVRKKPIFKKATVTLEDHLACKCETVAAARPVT
T3 sequence (P15692 other isoform, or with tags, fused parts or gaps limits assumed): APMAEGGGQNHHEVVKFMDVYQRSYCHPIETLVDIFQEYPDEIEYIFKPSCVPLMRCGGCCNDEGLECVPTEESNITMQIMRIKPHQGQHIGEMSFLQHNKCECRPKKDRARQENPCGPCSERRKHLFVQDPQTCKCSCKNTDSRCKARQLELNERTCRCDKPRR
T2 sequence (P15692 other isoform, or with tags, fused parts or gaps limits assumed): as above

Binder	Kd (PDGF-BB)	kon (PDGF-BB)	Kd (VEGF-A)	kon (VEGF-A)	Kd (Human VEGF-A 165)	kon (Human VEGF-A 165)
4G8.3-LS-9E8.4 (g) (PR-1572106) (bispecific antibody, human IgG1, kappa, L234A L235A, DVD-Ig: outer hBDB-4G8.3 (VEGF), inner hBDI-9E8.4 (PDGF), linkers HG-long/LK-short; Human IgG1 L234A, L235A, H435A with kappa) heavy: EVQLVQSGSELKKPGASVKVSCKASGYTFTNYGMYWVRQAPGQGLEWMGWINTETGKPTYADDFKGRFVFSLDTSVSTAYLQISSLKAEDTAVYYCARTNYYYRSYIFYFDYWGQGTMVTVSSASTKGPSVFPLAPEVTLRESGPALVKPTQTLTLTCTFSGFSLSTYGMGVGWIRQPPGKALEWLANIWWDDDKYYNPSLKNRLTISKDTSKNQVVLTMTNMDPVDTATYYCARIESIGTTYSFDYWGQGTMVTVSSASTKGPSVFPLAPSSKSTSGGTAALGCLVKDYFPEPVTVSWNSGALTSGVHTFPAVLQSSGLYSLSSVVTVPSSSLGTQTYICNVNHKPSNTKVDKKVEPKSCDKTHTCPPCPAPEAAGGPSVFLFPPKPKDTLMISRTPEVTCVVVDVSHEDPEVKFNWYVDGVEVHNAKTKPREEQYNSTYRVVSVLTVLHQDWLNGKEYKCKVSNKALPAPIEKTISKAKGQPREPQVYTLPPSREEMTKNQVSLTCLVKGFYPSDIAVEWESNGQPENNYKTTPPVLDSDGSFFLYSKLTVDKSRWQQGNVFSCSVMHEALHNAYTQKSLSLSPGK light: DTVLTQSPATLSLSPGERATLSCRASESVSTHMHWYQQKPGQAPRLLIYGASNLESGVPARFSGSGSGTDFTLTISSLEPEDFAVYFCQQSWNDPFTFGQGTKLEIKRTVAAPEFVLTQSPGTLSLSPGERATLSCERSSGDIGDSYVSWYQQKPGQAPRLVIYADDQRPSGIPDRFSGSGSGTDFTLTISRLEPEDFAVYYCQSYDINIDIVFGGGTKVEIKRTVAAPSVFIFPPSDEQLKSGTASVVCLLNNFYPREAKVQWKVDNALQSGNSQESVTEQDSKDSTYSLSSTLTLSKADYEKHKVYACEVTHQGLSSPVTKSFNRGEC	0.011 nM	1.8e+07 M⁻¹ s⁻¹	0.0081 nM	6.3e+06 M⁻¹ s⁻¹	–	–
4G8.3-LS-9E8.4E (PR-1575835) (bispecific antibody, human IgG1, kappa, L234A L235A, DVD-Ig: outer hBDB-4G8.3 (VEGF), inner hBDI-9E8.4E (PDGF), linkers HG-long/LK-short; Human IgG1 L234A, L235A, H435A with kappa) heavy: EVQLVQSGSELKKPGASVKVSCKASGYTFTNYGMYWVRQAPGQGLEWMGWINTETGKPTYADDFKGRFVFSLDTSVSTAYLQISSLKAEDTAVYYCARTNYYYRSYIFYFDYWGQGTMVTVSSASTKGPSVFPLAPEVTLRESGPALVKPTQTLTLTCTFSGFSLSTYGMGVGWIRQPPGKALEWLANIWWDDDKYYNPSLKNRLTISKDTSKNQVVLTMTNMDPVDTATYYCARIESIGTTYSFDYWGQGTMVTVSSASTKGPSVFPLAPSSKSTSGGTAALGCLVKDYFPEPVTVSWNSGALTSGVHTFPAVLQSSGLYSLSSVVTVPSSSLGTQTYICNVNHKPSNTKVDKKVEPKSCDKTHTCPPCPAPEAAGGPSVFLFPPKPKDTLMISRTPEVTCVVVDVSHEDPEVKFNWYVDGVEVHNAKTKPREEQYNSTYRVVSVLTVLHQDWLNGKEYKCKVSNKALPAPIEKTISKAKGQPREPQVYTLPPSREEMTKNQVSLTCLVKGFYPSDIAVEWESNGQPENNYKTTPPVLDSDGSFFLYSKLTVDKSRWQQGNVFSCSVMHEALHNAYTQKSLSLSPGK light: DTVLTQSPATLSLSPGERATLSCRASESVSTHMHWYQQKPGQAPRLLIYGASNLESGVPARFSGSGSGTDFTLTISSLEPEDFAVYFCQQSWNDPFTFGQGTKLEIKRTVAAPEFVLTQSPGTLSLSPGERATLSCERSSGDIGESYVSWYQQKPGQAPRLVIYADDQRPSGIPDRFSGSGSGTDFTLTISRLEPEDFAVYYCQSYDINIDIVFGGGTKVEIKRTVAAPSVFIFPPSDEQLKSGTASVVCLLNNFYPREAKVQWKVDNALQSGNSQESVTEQDSKDSTYSLSSTLTLSKADYEKHKVYACEVTHQGLSSPVTKSFNRGEC	0.014 nM	2e+07 M⁻¹ s⁻¹	0.01 nM	5.8e+06 M⁻¹ s⁻¹	–	–
4G8.3-GS-9E8.4E (PR-1575832) (bispecific antibody, human IgG1, kappa, L234A L235A, DVD-Ig: outer hBDB-4G8.3 (VEGF), inner hBDI-9E8.4E (PDGF), linkers GS-H10/GS-L10; Human IgG1 L234A, L235A, H435A with kappa) heavy: EVQLVQSGSELKKPGASVKVSCKASGYTFTNYGMYWVRQAPGQGLEWMGWINTETGKPTYADDFKGRFVFSLDTSVSTAYLQISSLKAEDTAVYYCARTNYYYRSYIFYFDYWGQGTMVTVSSGGGGSGGGGSEVTLRESGPALVKPTQTLTLTCTFSGFSLSTYGMGVGWIRQPPGKALEWLANIWWDDDKYYNPSLKNRLTISKDTSKNQVVLTMTNMDPVDTATYYCARIESIGTTYSFDYWGQGTMVTVSSASTKGPSVFPLAPSSKSTSGGTAALGCLVKDYFPEPVTVSWNSGALTSGVHTFPAVLQSSGLYSLSSVVTVPSSSLGTQTYICNVNHKPSNTKVDKKVEPKSCDKTHTCPPCPAPEAAGGPSVFLFPPKPKDTLMISRTPEVTCVVVDVSHEDPEVKFNWYVDGVEVHNAKTKPREEQYNSTYRVVSVLTVLHQDWLNGKEYKCKVSNKALPAPIEKTISKAKGQPREPQVYTLPPSREEMTKNQVSLTCLVKGFYPSDIAVEWESNGQPENNYKTTPPVLDSDGSFFLYSKLTVDKSRWQQGNVFSCSVMHEALHNAYTQKSLSLSPGK light: DTVLTQSPATLSLSPGERATLSCRASESVSTHMHWYQQKPGQAPRLLIYGASNLESGVPARFSGSGSGTDFTLTISSLEPEDFAVYFCQQSWNDPFTFGQGTKLEIKRGGSGGGGSGEFVLTQSPGTLSLSPGERATLSCERSSGDIGESYVSWYQQKPGQAPRLVIYADDQRPSGIPDRFSGSGSGTDFTLTISRLEPEDFAVYYCQSYDINIDIVFGGGTKVEIKRTVAAPSVFIFPPSDEQLKSGTASVVCLLNNFYPREAKVQWKVDNALQSGNSQESVTEQDSKDSTYSLSSTLTLSKADYEKHKVYACEVTHQGLSSPVTKSFNRGEC	0.02 nM	1.3e+07 M⁻¹ s⁻¹	0.013 nM	6.1e+06 M⁻¹ s⁻¹	–	–
4G8.3-SL-9E8.4E (PR-1575834) (bispecific antibody, human IgG1, kappa, L234A L235A, DVD-Ig: outer hBDB-4G8.3 (VEGF), inner hBDI-9E8.4E (PDGF), linkers HG-short/LK-long; Human IgG1 L234A, L235A, H435A with kappa) heavy: EVQLVQSGSELKKPGASVKVSCKASGYTFTNYGMYWVRQAPGQGLEWMGWINTETGKPTYADDFKGRFVFSLDTSVSTAYLQISSLKAEDTAVYYCARTNYYYRSYIFYFDYWGQGTMVTVSSASTKGPEVTLRESGPALVKPTQTLTLTCTFSGFSLSTYGMGVGWIRQPPGKALEWLANIWWDDDKYYNPSLKNRLTISKDTSKNQVVLTMTNMDPVDTATYYCARIESIGTTYSFDYWGQGTMVTVSSASTKGPSVFPLAPSSKSTSGGTAALGCLVKDYFPEPVTVSWNSGALTSGVHTFPAVLQSSGLYSLSSVVTVPSSSLGTQTYICNVNHKPSNTKVDKKVEPKSCDKTHTCPPCPAPEAAGGPSVFLFPPKPKDTLMISRTPEVTCVVVDVSHEDPEVKFNWYVDGVEVHNAKTKPREEQYNSTYRVVSVLTVLHQDWLNGKEYKCKVSNKALPAPIEKTISKAKGQPREPQVYTLPPSREEMTKNQVSLTCLVKGFYPSDIAVEWESNGQPENNYKTTPPVLDSDGSFFLYSKLTVDKSRWQQGNVFSCSVMHEALHNAYTQKSLSLSPGK light: DTVLTQSPATLSLSPGERATLSCRASESVSTHMHWYQQKPGQAPRLLIYGASNLESGVPARFSGSGSGTDFTLTISSLEPEDFAVYFCQQSWNDPFTFGQGTKLEIKRTVAAPSVFIFPPEFVLTQSPGTLSLSPGERATLSCERSSGDIGESYVSWYQQKPGQAPRLVIYADDQRPSGIPDRFSGSGSGTDFTLTISRLEPEDFAVYYCQSYDINIDIVFGGGTKVEIKRTVAAPSVFIFPPSDEQLKSGTASVVCLLNNFYPREAKVQWKVDNALQSGNSQESVTEQDSKDSTYSLSSTLTLSKADYEKHKVYACEVTHQGLSSPVTKSFNRGEC	0.015 nM	1.7e+07 M⁻¹ s⁻¹	0.01 nM	6.2e+06 M⁻¹ s⁻¹	–	–
BEW-6C2-C8 (antibody, IgG2b, V domains shown) VH: EVQLVESGGGLVQPGSSLKLSCAASGFTFSYYGMHWIRQAPKKGLEWMALIYYDSSKMYYADSVKGRFTISRDNSKNTLYLEMNSLRSEDTAMYYCAAGGTAPVYWGQGVMVTVSS VL: NIQLTQSPSLLSASVGDRVTLSCKGSQNIANYLAWYQQKLGEAPKLLIYNTDSLQTGIPSRFSGSGSGTDYTLTISSLQPEDVATYFCYQSNNGYTFGAGTKLELR	–	–	–	–	0.012 nM	6.9e+06 M⁻¹ s⁻¹
BEW-8E6-E4 (antibody, IgG2a, V domains shown) VH: QIQLVQSGPELKKPGESVKISCKASGYTFTDYAMHWVKQAPGKVLKWMGWINTFTGKPTYIDDFKGRFVFSLEASASTANLQISDLKNEDTATYFCARGNYYSGYWYFDFWGPGTMVTMSS VL: DIQMTQSPASLSASLGETISIECRASEDISSNLAWYQQKSGKSPQLLIFAANRLQDGVPSRFSGSGSGTQFSLKISGMQPEDEGDYFCLQGSKFYTFGAGTKLELK	–	–	–	–	0.017 nM	6.9e+06 M⁻¹ s⁻¹
BEW-9A8-E2 (antibody, IgG2a, V domains shown) VH: QIQLVQSGPELKKPGESVKISCKASGYTFTNYGMYWVKQAPGQGLQYMGWINTETGKPIYADDFKGRFVFFLETSASTAYLQINNLKNEDMATFFCARVDYDGSFWFAYWGQGTLVTVSS VL: DTVLTQSPALAVSPGERVSISCRASESVSTVIHWYQQKPGQQPKLLIHGASNLESGVPARFSGSGSGTDFTLTIDPVEADDTATYFCQQHWNDPPTFGAGTKLEMK	–	–	–	–	0.00096 nM	7.4e+06 M⁻¹ s⁻¹
